Measured values as given in patent US20220143024A1, “METHODS OF USING IMIPRIDONES” (Board of Regents, The University of Texas System, priority 2019, published 2022).

Legend:
Test in all cases: BioID-MS
ACAD10 (human) = ACAD10 (human) (UniProt Q6JQN1)
ACO2 (human) = ACO2 (human) (UniProt Q99798)
AFG3L2 (human) = AFG3L2 (human) (UniProt Q9Y4W6)
AIFM1 (human) = AIFM1 (human) (UniProt O95831)
AK3 (human) = AK3 (human) (UniProt Q9UIJ7)
ALDH1L2 (human) = ALDH1L2 (human) (UniProt Q3SY69)
ALDH2 (human) = ALDH2 (human) (UniProt P05091)
ALDH4A1 (human) = ALDH4A1 (human) (UniProt P30038)
Sequence of ALDH4A1 (human) (P30038 25-563 limits assumed): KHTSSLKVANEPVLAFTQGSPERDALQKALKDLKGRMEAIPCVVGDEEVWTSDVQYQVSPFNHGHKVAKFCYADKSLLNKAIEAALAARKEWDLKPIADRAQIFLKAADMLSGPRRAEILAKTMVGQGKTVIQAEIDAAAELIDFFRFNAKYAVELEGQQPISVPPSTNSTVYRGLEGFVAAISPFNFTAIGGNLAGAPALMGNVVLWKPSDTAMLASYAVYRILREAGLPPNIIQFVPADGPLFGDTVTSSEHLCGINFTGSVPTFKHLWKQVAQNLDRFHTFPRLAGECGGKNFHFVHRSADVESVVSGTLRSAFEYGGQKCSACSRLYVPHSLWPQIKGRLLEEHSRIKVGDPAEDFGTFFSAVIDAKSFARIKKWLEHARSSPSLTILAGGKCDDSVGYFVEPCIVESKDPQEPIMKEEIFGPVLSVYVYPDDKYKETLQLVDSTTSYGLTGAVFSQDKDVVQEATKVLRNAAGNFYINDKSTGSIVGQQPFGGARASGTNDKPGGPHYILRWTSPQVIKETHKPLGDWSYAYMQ

ARG2 (human) = ARG2 (human) (UniProt P78540)
BCKDHB (human) = BCKDHB (human) (UniProt P21953)
C7orf55 (human) = C7orf55 (human) (UniProt Q96HJ9)
Sequence of C7orf55 (human) (Q96HJ9 whole entry): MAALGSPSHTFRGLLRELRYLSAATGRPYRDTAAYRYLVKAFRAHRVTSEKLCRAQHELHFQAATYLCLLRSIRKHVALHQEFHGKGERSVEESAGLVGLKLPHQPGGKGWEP

COQ8A (human) = COQ8A (human) (UniProt Q8NI60)
COX4I1 (human) = COX4I1 (human) (UniProt P13073)
Sequence of COX4I1 (human) (P13073 23-169 limits assumed): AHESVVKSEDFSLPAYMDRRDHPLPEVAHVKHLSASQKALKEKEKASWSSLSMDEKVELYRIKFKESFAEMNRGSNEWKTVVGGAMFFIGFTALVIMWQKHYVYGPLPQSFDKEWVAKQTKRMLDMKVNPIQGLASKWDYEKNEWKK

COX5A (human) = COX5A (human) (UniProt P20674)
DHRS4 (human) = DHRS4 (human) (UniProt Q9BTZ2)
FASTKD5 (human) = FASTKD5 (human) (UniProt Q7L8L6)
Sequence of FASTKD5 (human) (Q7L8L6 28-764 limits assumed): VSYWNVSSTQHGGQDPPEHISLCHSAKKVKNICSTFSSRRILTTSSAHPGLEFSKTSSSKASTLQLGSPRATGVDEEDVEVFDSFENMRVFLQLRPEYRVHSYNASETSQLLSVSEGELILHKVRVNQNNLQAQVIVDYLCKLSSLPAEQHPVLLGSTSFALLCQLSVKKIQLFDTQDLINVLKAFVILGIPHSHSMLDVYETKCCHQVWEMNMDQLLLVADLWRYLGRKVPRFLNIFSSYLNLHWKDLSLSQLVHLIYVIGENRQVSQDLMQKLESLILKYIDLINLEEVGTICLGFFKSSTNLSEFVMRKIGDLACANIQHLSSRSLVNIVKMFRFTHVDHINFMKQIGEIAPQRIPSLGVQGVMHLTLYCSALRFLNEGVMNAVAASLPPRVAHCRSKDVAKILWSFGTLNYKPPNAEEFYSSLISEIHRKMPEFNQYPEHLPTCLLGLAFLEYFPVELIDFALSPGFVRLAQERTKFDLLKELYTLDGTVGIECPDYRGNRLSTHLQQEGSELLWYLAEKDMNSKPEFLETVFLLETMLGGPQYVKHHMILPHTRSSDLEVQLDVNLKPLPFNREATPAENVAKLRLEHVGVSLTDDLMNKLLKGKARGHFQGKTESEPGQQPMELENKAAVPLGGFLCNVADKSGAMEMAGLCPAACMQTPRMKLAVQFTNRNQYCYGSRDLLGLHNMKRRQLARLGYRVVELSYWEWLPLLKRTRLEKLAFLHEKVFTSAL

GATB (human) = GATB (human) (UniProt O75879)
Sequence of GATB (human) (O75879 31-557 limits assumed): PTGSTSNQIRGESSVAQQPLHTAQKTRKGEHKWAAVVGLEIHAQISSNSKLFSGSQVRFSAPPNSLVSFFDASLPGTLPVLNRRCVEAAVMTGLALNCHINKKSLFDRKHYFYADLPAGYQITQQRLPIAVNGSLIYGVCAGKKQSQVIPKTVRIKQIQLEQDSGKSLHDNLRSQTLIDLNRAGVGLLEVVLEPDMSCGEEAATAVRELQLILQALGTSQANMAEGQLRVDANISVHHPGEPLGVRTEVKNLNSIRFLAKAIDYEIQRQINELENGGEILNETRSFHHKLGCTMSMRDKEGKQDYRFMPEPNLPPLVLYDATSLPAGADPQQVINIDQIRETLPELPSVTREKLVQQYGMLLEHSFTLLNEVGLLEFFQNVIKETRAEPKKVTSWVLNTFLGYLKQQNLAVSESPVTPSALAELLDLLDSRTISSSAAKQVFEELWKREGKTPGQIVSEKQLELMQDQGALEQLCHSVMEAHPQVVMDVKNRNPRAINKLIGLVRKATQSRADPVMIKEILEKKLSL

GLS (human) = GLS (human) (UniProt O94925)
GUF1 (human) = GUF1 (human) (UniProt Q8N442)
HIBCH (human) = HIBCH (human) (UniProt Q6NVY1)
HSD17B10 (human) = HSD17B10 (human) (UniProt Q99714)
HSDL2 (human) = HSDL2 (human) (UniProt Q6YN16)
HSPA1L (human) = HSPA1L (human) (UniProt P34931)
Sequence of HSPA1L (human) (P34931 whole entry): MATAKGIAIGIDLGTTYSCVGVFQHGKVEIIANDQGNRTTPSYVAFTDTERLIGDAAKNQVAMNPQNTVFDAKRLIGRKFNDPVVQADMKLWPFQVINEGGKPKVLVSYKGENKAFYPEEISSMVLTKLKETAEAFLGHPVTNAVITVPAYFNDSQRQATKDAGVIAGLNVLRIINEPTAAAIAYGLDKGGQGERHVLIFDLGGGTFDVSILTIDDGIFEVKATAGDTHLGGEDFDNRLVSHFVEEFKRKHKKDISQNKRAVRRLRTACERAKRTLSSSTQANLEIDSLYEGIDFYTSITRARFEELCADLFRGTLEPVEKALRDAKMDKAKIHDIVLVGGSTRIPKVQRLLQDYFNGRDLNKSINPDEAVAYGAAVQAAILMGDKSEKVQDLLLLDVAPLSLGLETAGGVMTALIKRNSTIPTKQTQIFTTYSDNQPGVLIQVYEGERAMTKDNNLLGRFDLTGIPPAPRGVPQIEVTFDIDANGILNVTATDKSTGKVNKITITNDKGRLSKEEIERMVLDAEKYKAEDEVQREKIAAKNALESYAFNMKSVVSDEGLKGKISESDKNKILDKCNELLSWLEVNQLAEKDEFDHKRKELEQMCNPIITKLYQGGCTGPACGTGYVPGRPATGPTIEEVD

LARS2 (human) = LARS2 (human) (UniProt Q15031)
LETM1 (human) = LETM1 (human) (UniProt O95202)
LYRM7 (human) = LYRM7 (human) (UniProt Q5U5X0)
Sequence of LYRM7 (human) (Q5U5X0 whole entry): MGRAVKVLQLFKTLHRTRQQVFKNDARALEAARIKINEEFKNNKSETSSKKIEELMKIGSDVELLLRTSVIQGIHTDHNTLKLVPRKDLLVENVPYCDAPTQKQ

MMAB (human) = MMAB (human) (UniProt Q96EY8)
MPST (human) = MPST (human) (UniProt P25325)
MRM3 (human) = MRM3 (human) (UniProt Q9HC36)
MRPL40 (human) = MRPL40 (human) (UniProt Q9NQ50)
MRPL46 (human) = MRPL46 (human) (UniProt Q9H2W6)
MRPL54 (human) = MRPL54 (human) (UniProt Q6P161)
MRPS25 (human) = MRPS25 (human) (UniProt P82663)
MRPS7 (human) = MRPS7 (human) (UniProt Q9Y2R9)
NADK2 (human) = NADK2 (human) (UniProt Q4G0N4)
NARS2 (human) = NARS2 (human) (UniProt Q96I59)
NDUFA2 (human) = NDUFA2 (human) (UniProt O43678)
NDUFAF5 (human) = NDUFAF5 (human) (UniProt Q5TEU4)
NDUFS4 (human) = NDUFS4 (human) (UniProt O43181)
Sequence of NDUFS4 (human) (O43181 43-175 limits assumed): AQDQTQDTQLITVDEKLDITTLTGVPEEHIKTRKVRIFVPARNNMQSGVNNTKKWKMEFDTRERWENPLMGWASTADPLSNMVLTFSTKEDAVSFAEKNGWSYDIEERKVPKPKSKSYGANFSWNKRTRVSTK

NDUFS6 (human) = NDUFS6 (human) (UniProt O75380)
Sequence of NDUFS6 (human) (O75380 29-124 limits assumed): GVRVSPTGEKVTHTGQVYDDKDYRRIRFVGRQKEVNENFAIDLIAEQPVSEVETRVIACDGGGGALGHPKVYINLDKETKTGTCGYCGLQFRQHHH

NFUl (human) = NFUl (human) (UniProt Q9UMS0)
NIPSNAP1 (human) = NIPSNAP1 (human) (UniProt Q9BPW8)
NMNAT3 (human) = NMNAT3 (human) (UniProt Q96T66)
Sequence of NMNAT3 (human) (Q96T66 whole entry): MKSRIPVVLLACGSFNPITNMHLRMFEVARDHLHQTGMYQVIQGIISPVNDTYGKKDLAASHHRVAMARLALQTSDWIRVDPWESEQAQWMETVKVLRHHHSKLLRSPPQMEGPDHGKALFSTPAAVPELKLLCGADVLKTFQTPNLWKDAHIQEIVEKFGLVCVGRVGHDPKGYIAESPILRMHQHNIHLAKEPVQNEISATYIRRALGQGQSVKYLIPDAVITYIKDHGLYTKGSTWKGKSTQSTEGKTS

PDPR (human) = PDPR (human) (UniProt Q8NCN5)
Sequence of PDPR (human) (Q8NCN5 28-879 limits assumed): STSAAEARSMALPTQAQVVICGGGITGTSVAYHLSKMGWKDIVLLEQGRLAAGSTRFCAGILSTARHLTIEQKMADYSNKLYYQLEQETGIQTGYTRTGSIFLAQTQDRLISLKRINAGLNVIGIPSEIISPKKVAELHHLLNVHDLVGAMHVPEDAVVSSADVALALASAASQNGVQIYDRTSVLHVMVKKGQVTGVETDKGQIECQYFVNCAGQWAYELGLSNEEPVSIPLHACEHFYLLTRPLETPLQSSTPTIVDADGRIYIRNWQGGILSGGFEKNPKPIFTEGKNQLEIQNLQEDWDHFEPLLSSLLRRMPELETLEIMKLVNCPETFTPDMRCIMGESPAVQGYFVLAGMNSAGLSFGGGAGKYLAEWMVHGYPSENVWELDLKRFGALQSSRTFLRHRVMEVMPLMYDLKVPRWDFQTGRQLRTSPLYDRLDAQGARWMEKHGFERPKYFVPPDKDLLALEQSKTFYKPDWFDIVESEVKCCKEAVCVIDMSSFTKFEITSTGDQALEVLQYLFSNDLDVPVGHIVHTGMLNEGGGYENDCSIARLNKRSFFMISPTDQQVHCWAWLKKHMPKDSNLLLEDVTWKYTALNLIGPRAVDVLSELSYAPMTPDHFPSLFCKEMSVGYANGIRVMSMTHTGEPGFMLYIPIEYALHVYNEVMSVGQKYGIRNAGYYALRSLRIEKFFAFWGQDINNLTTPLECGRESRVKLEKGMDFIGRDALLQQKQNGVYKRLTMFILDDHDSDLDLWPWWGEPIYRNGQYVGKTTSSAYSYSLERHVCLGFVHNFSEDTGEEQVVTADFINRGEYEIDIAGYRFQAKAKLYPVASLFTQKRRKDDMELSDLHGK

PITRM1 (human) = PITRM1 (human) (UniProt Q5JRX3)
PPA2 (human) = PPA2 (human) (UniProt Q9H2U2)
PYCR1 (human) = PYCR1 (human) (UniProt P32322)
QRSL1 (human) = QRSL1 (human) (UniProt Q9H0R6)
RG9MTD1 (human) = RG9MTD1 (human) (UniProt Q7L0Y3)
RTN4IP1 (human) = RTN4IP1 (human) (UniProt Q8WWV3)
SDHB (human) = SDHB (human) (UniProt P21912)
SLC27A2 (human) = SLC27A2 (human) (UniProt O14975)
SLIRP (human) = SLIRP (human) (UniProt Q9GZT3)
SUPV3L1 (human) = SUPV3L1 (human) (UniProt Q8IYB8)
TBRG4 (human) = TBRG4 (human) (UniProt Q969Z0)
Sequence of TBRG4 (human) (Q969Z0 108-631 limits assumed): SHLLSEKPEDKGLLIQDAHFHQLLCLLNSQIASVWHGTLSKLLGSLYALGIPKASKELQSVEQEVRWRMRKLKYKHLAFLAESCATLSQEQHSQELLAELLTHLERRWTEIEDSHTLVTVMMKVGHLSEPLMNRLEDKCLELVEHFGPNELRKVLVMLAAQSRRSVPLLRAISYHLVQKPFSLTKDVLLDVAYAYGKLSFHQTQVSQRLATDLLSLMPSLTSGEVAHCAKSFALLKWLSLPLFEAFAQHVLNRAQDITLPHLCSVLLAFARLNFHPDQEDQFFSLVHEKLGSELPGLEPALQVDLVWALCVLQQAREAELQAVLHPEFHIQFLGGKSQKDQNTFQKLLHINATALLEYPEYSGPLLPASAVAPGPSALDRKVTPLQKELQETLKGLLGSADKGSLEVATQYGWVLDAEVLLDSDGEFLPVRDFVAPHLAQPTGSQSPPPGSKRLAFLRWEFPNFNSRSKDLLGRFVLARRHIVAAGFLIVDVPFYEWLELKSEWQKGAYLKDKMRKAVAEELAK

TFAM (human) = TFAM (human) (UniProt Q00059)
TST (human) = TST (human) (UniProt Q16762)
UQCRB (human) = UQCRB (human) (UniProt P14927)

Sequence of AK3 (human) (Q9UIJ7 whole entry): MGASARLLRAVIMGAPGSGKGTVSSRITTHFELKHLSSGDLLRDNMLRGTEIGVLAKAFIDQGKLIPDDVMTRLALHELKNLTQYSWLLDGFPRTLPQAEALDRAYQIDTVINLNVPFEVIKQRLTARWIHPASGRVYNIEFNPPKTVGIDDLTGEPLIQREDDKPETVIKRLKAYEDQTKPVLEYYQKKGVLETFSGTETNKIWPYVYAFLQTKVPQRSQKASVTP

Q: For “FlagBirA-ClpP (Y118A) (from UniProt P06709 1-321; Q16740 57-277) (enzyme)”, which Log2 Fold change (vs control) (ACAD10 (human)) is on record?
A: -4.09 log2

Q: And the Log2 Fold change (vs control) (ACO2 (human))?
A: -0.29 log2

Q: What about the Log2 Fold change (vs control) (AFG3L2 (human)) of the same substance?
A: 0.43 log2

Q: And the Log2 Fold change (vs control) (AIFM1 (human))?
A: -2.32 log2

Q: What about the Log2 Fold change (vs control) (AK3 (human)) of the same substance?
A: -0.28 log2

Q: What about the Log2 Fold change (vs control) (ALDH1L2 (human)) of the same substance?
A: -0.69 log2

Q: And the Log2 Fold change (vs control) (ALDH2 (human))?
A: -0.18 log2

Q: What about the Log2 Fold change (vs control) (ALDH4A1 (human)) of the same substance?
A: -0.81 log2

Q: And the Log2 Fold change (vs control) (ARG2 (human))?
A: 0.78 log2

Q: And the Log2 Fold change (vs control) (BCKDHB (human))?
A: 0.79 log2

Q: And the Log2 Fold change (vs control) (C7orf55 (human))?
A: -0.74 log2

Q: What about the Log2 Fold change (vs control) (COQ8A (human)) of the same substance?
A: -0.67 log2

Q: What about the Log2 Fold change (vs control) (COX4I1 (human)) of the same substance?
A: 0.17 log2

Q: What about the Log2 Fold change (vs control) (COX5A (human)) of the same substance?
A: 0.45 log2

Q: And the Log2 Fold change (vs control) (DHRS4 (human))?
A: 0.14 log2

Q: And the Log2 Fold change (vs control) (FASTKD5 (human))?
A: 1.05 log2

Q: And the Log2 Fold change (vs control) (GATB (human))?
A: -3.1 log2

Q: What about the Log2 Fold change (vs control) (GLS (human)) of the same substance?
A: 0.21 log2

Q: And the Log2 Fold change (vs control) (GUF1 (human))?
A: 0.38 log2

Q: What about the Log2 Fold change (vs control) (HIBCH (human)) of the same substance?
A: 0.35 log2

Q: What about the Log2 Fold change (vs control) (HSD17B10 (human)) of the same substance?
A: 0.72 log2

Q: And the Log2 Fold change (vs control) (HSDL2 (human))?
A: 0.83 log2

Q: What about the Log2 Fold change (vs control) (HSPA1L (human)) of the same substance?
A: -0.71 log2

Q: And the Log2 Fold change (vs control) (LARS2 (human))?
A: 0.1 log2

Q: What about the Log2 Fold change (vs control) (LETM1 (human)) of the same substance?
A: 1.06 log2

Q: And the Log2 Fold change (vs control) (LYRM7 (human))?
A: 0.23 log2

Q: And the Log2 Fold change (vs control) (MMAB (human))?
A: 0.11 log2

Q: What about the Log2 Fold change (vs control) (MPST (human)) of the same substance?
A: -1.29 log2

Q: What about the Log2 Fold change (vs control) (MRM3 (human)) of the same substance?
A: 0.14 log2

Q: And the Log2 Fold change (vs control) (MRPL40 (human))?
A: 0.37 log2

Q: What about the Log2 Fold change (vs control) (MRPL46 (human)) of the same substance?
A: -0.28 log2

Q: And the Log2 Fold change (vs control) (MRPL54 (human))?
A: -3 log2

Q: And the Log2 Fold change (vs control) (MRPS25 (human))?
A: 0.62 log2

Q: What about the Log2 Fold change (vs control) (MRPS7 (human)) of the same substance?
A: 0.71 log2

Q: And the Log2 Fold change (vs control) (NADK2 (human))?
A: 0.06 log2

Q: And the Log2 Fold change (vs control) (NARS2 (human))?
A: -0.14 log2

Q: What about the Log2 Fold change (vs control) (NDUFA2 (human)) of the same substance?
A: -0.23 log2

Q: And the Log2 Fold change (vs control) (NDUFAF5 (human))?
A: -0.47 log2

Q: What about the Log2 Fold change (vs control) (NDUFS4 (human)) of the same substance?
A: -0.57 log2

Q: And the Log2 Fold change (vs control) (NDUFS6 (human))?
A: -0.26 log2

Q: And the Log2 Fold change (vs control) (NFUl (human))?
A: -0.32 log2

Q: What about the Log2 Fold change (vs control) (NIPSNAP1 (human)) of the same substance?
A: 0.11 log2

Q: What about the Log2 Fold change (vs control) (NMNAT3 (human)) of the same substance?
A: -4 log2

Q: What about the Log2 Fold change (vs control) (PDPR (human)) of the same substance?
A: 0.09 log2

Q: What about the Log2 Fold change (vs control) (PITRM1 (human)) of the same substance?
A: -0.16 log2

Q: What about the Log2 Fold change (vs control) (PPA2 (human)) of the same substance?
A: 0.02 log2

Q: And the Log2 Fold change (vs control) (PYCR1 (human))?
A: 1.08 log2

Q: And the Log2 Fold change (vs control) (QRSL1 (human))?
A: -0.01 log2

Q: What about the Log2 Fold change (vs control) (RG9MTD1 (human)) of the same substance?
A: 0.47 log2

Q: And the Log2 Fold change (vs control) (RTN4IP1 (human))?
A: -0.52 log2

Q: And the Log2 Fold change (vs control) (SDHB (human))?
A: -0.6 log2

Q: What about the Log2 Fold change (vs control) (SLC27A2 (human)) of the same substance?
A: -3.81 log2

Q: What about the Log2 Fold change (vs control) (SLIRP (human)) of the same substance?
A: 0.25 log2

Q: And the Log2 Fold change (vs control) (SUPV3L1 (human))?
A: 0.56 log2

Q: What about the Log2 Fold change (vs control) (TBRG4 (human)) of the same substance?
A: 0.28 log2

Q: What about the Log2 Fold change (vs control) (TFAM (human)) of the same substance?
A: 0.63 log2

Q: What about the Log2 Fold change (vs control) (TST (human)) of the same substance?
A: -0.51 log2

Q: What about the Log2 Fold change (vs control) (UQCRB (human)) of the same substance?
A: -2.38 log2
